Measurements published in US20090304651A1 (published 2009).
Like-named read-outs stand apart in the source and are kept apart here.

B1: wild type IGF2R domain 11 (amino acids 1511-1650) with C-terminal His6 tag, from Pichia pastoris (receptor)
chain: NEHDDCQVTNPSTGHLFDLSSLSGRAGFTAAYSEKGLVYMSICGENENCPPGVGACFGQTRISVGKANKRLRYVDQVLQLVYKDGSPCPSKSGLSYKSVISFVCRPEAGPTNRPMLISLDKQTCTLFFSWHTPLACEQATHHHHHH
notes: also called WT; wild type domain 11
B2: IGF2R domain 11 E1544A (amino acids 1511-1650, C-terminal His6 tag, from Pichia pastoris) (receptor)
chain: NEHDDCQVTNPSTGHLFDLSSLSGRAGFTAAYSAKGLVYMSICGENENCPPGVGACFGQTRISVGKANKRLRYVDQVLQLVYKDGSPCPSKSGLSYKSVISFVCRPEAGPTNRPMLISLDKQTCTLFFSWHTPLACEQATHHHHHH
B3: IGF2R domain 11 E1544K (amino acids 1511-1650, C-terminal His6 tag, from Pichia pastoris) (receptor)
chain: NEHDDCQVTNPSTGHLFDLSSLSGRAGFTAAYSKKGLVYMSICGENENCPPGVGACFGQTRISVGKANKRLRYVDQVLQLVYKDGSPCPSKSGLSYKSVISFVCRPEAGPTNRPMLISLDKQTCTLFFSWHTPLACEQATHHHHHH
notes: also called enhanced mutant

What was measured:
[1] = target: T1, recombinant human IGF-II (Insulin-like Growth Factor II) (human, UniProt P01344 25-91, biotinylated (Biotinyl-IGF-II, GroPep) where immobilised in SPR, site not stated; not biotinylated in ITC and as SPR analyte); experiment: SPR (Biacore)
T1 construct: also called IGF2; IGF-2
T1 sequence (P01344 25-91 limits assumed): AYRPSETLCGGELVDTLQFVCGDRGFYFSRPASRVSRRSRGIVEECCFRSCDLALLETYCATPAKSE

[2] = target: T1, recombinant human IGF-II (Insulin-like …); experiment: ITC, IGF-II titrated into domain 11
Experimental: Calorimetric measurements were performed using a VP-ITC microcalorimeter (MicroCal). All solutions were thoroughly degassed before use by stirring under vacuum. […] The sample cell contained either wild type domain 11 (7 uM) or the E1544A mutant (8 μM), also in HBS-E buffer. To correct for the heat effects of dilution and mixing, reaction heats obtained from a control experiment, in which IGF2 was injected into HBS-E, were subtracted. Calorimetric data were analysed using MicroCal ORIGIN software (version 5.0) supplied with the instrument. Thermodynamic parameters were derived by fitting the binding isotherms to a single-site binding model. Values for dissociation affinity constants (KD) were determined from duplicate experiments.
In order to validate the SPR sensorgram data, ITC was used to assess the binding affinity between domain 11 and IGF-II. The affinity of the E1544A mutant was also assessed by ITC in order to confirm whether use of a second technique agreed as to the apparent increase in affinity (FIG. 6 and Table 6). Titrations were performed using 17×15 μl injections of 40 μM IGF-II (after an initial 7.51 injection) into the reaction cell containing wild type domain 11 or the E1544A mutant. […] The two fold differences may be simply accounted for by the fidelity of both techniques.

[3] = target: T1, recombinant human IGF-II (Insulin-like …); experiment: SPR, IGF-II immobilised, kinetic fit
Experimental: (§1) Duplicate analyte injections were performed at concentrations of 4096, 2048, 1024, 512, 256, 128, 64, 32, 16 and 8 nM.
(§2) Kinetic analysis by Surface Plasmon Resonance (SPR) was conducted on a BIAcore 3000 biosensor (BIAcore, Uppsala, Sweden) at 25° C. in HBS-EP (10 mM HEPES, pH 7.4, 150 mM NaCl, 3 mM EDTA, 0.005% surfactant P20) at a flow rate of 40 μl/min. […] Kinetic experiments consisted of a two minute injection of analyte followed by a 100 s dissociation phase in running buffer, after which the binding surface was regenerated with a 2 minute injection of 2 M MgCl₂. A blank flow cell was used for in-line reference subtraction of changes due to differences in refractive index of running buffer versus sample and a buffer-only injection was used to subtract instrument noise and drift. Injections were performed in duplicate for each concentration and in a randomised order. Kinetic parameters were determined by global fitting of sensorgrams to a two-state (conformational change) binding model using BIAevaluation software version 4.0.1. In all cases the minor component made an insignificant contribution to the overall affinity and as such only the kinetic parameters of the major binding component were used. For each interaction the dissociation affinity constant (KD) was also calculated by fitting of the response of each concentration at equilibrium to a steady-state affinity model using BIAevaluation.

[4] = target: T1, recombinant human IGF-II (Insulin-like …); experiment: SPR, IGF-II immobilised, kinetic fit; remark: listed apart in the source
How it was run: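 Pichia pastoris-secreted, His-tag-purified domain 11 proteins were injected in duplicate, in randomised order, over ~50 RU biotinylated IGF-II captured on a streptavidin Sensor Chip SA. Runs used a BIAcore 3000 at 25° C in HBS-EP at 40 μl/min, with 2 min injections, 100 s dissociation and 2 M MgCl₂ regeneration. Analyte ran at 4096–8 nM, or 16384–32 nM for three constructs. Association and dissociation rates and Kd came from global sensorgram fitting in BIAevaluation 4.0.1, after blank-flow-cell and buffer-injection subtraction.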

[5] = target: T1, recombinant human IGF-II (Insulin-like …); experiment: SPR, IGF-II immobilised, steady state
Experimental: as §1, §2

[6] = target: T1, recombinant human IGF-II (Insulin-like …); experiment: SPR, IGF-II immobilised, steady state; remark: listed apart in the source
How it was run: (§3)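 Pichia pastoris-secreted, His-tag-purified domain 11 proteins were injected in duplicate over ~50 RU biotinylated IGF-II on a streptavidin Sensor Chip SA. Runs used a BIAcore 3000 at 25° C in HBS-EP at 40 μl/min, with 2 min injections and blank-flow-cell and buffer-injection subtraction. Analyte ran at 4096–8 nM, or 16384–32 nM for three constructs.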

[7] = target: T1, recombinant human IGF-II (Insulin-like …); experiment: SPR, steady-state KD relative to wild type
Experimental: as §1, §2

[8] = target: T1, recombinant human IGF-II (Insulin-like …); experiment: SPR, steady-state KD relative to wild type; remark: listed apart in the source
How it was run: as §3

| Binder | Kd [1] [nM] | Kd [2] [nM] | Kd [3] [nM] | koff [3] [s⁻¹] | kon [3] [M⁻¹ s⁻¹] | Kd [4] [nM] | koff [4] [s⁻¹] | kon [4] [M⁻¹ s⁻¹] | Kd [5] [nM] | Kd [6] [nM] | Relative Affinity [7] | Relative Affinity [8] |
| --- | --- | --- | --- | --- | --- | --- | --- | --- | --- | --- | --- | --- |
| B1 | 103 | 150 | 102 | 0.053 | 525000 | 119 | 0.0787 | 662000 | 103 | 103 | 1 fold (wild type = 1.00) | 1 fold (wild type = 1.00) |
| B2 | 37 | 81.4 | 35.9 | 0.033 | 934000 | 45.5 | 0.0558 | 1.23e+06 | 37 | 37 | 2.79 fold (wild type = 1.00) | 2.79 fold (wild type = 1.00) |
| B3 | 16.9 | 26.4 | 15.2 | 0.023 | 1.52e+06 | 20.5 | 0.0406 | 2.02e+06 | 16.9 | 16.9 | 6.12 fold (wild type = 1.00) | 6.12 fold (wild type = 1.00) |
